This assay relates to cGPS CHO-K1 cells. The experiment in a line: Gene targeting (KI assay) of lacZ integration matrix in cGPS CHO-K1 cells, double G418/puromycin selection. The format is cell-based. The conditions noted are these: cGPS CHO-K1, pTV-DS-lacz integration matrix, G418 + puromycin selection. Here is the method:
Transfection: On D day, 0.5 μg of the pTV-DS-lacz (SEQ ID NO: 17) is transfected in cGPS CHO-K1 cells by using the PolyFect® reagent from Qiagen. One day after the transfection of the integration matrix (D+1), 1000 μg of the purified DPV15b/I-CreI N75/6× His (SEQ ID NO: 58) meganuclease protein is directly added into transfected cGPS CHO-K1 cells.
Selection: cGPS CHO-K1 cells are transfected with the protocol described above. 24 hours after transfection, the cells are washed and fresh medium supplemented with 0.6 mg/ml of G418 is added. After 10 days of G418 selection, the culture medium is replaced with complete medium supplemented with G418 at 0.6 mg/ml and puromycin at 10 μg/ml. 3 to 4 days later, double resistant clones are visualized through an inverted microscope. At this step, double resistant clones are either stained for lacz expression monitoring or picked up for amplification and molecular characterization. (see section 2.5)
X-gal staining: Culture medium is removed and LacZ-targeted double resistant cGPS CHO-K1 adherent cells are washed once with PBS. 5 ml of fixing buffer (100 mM phosphate buffer, 1 mM MgCl2, 0.5% (v/v) glutaraldehyde (Prolabo, 25% solution)) is added. After 10 min. of incubation on ice, fixing is replaced by 5 ml of washing buffer (100 mM phosphate buffer, 1 mM MgCl2, 0.02% (v/v) NP40). […]

B1: DPV15b/I-CreI N75/6× His: purified recombinant I-CreI N75 meganuclease with cell-penetrating peptide DPV15b fused at N-terminal and 6x histidine tag at C-terminal (protein)
chain: MGAYDLRRRERQSRLRRRERQSRNTKYNKEFLLYLAGFVDGDGSIIAQIKPNQSYKFKHQLSLTFQVTQKTQRRWFLDKLVDEIGVGYVRDRGSVSNYILSEIKPLHNFLTQLQPFLKLKQKQANLVLKIIEQLPSAKESPDKFLEVCTWVDQIAALNDSKTRKTTSETVRAVLDSLSEKKKSSPAAALEHHHHHH
For B1, the “number of double resistant cell colonies generated” value is “around 30” and the selection frequency is recorded as 3×10^−4.

(Values after patent US8476072B2, “Meganuclease recombination system” (Cellectis, priority 2008, dated 2013).)
